Experimental data taken from patent publication US20060094079A1.

Target: Human placental collagen, type III (Sigma) (human) (UniProt P02461)
Test: cell-based or functional assay

UniProt P02461, sequence (P02461 154-1221): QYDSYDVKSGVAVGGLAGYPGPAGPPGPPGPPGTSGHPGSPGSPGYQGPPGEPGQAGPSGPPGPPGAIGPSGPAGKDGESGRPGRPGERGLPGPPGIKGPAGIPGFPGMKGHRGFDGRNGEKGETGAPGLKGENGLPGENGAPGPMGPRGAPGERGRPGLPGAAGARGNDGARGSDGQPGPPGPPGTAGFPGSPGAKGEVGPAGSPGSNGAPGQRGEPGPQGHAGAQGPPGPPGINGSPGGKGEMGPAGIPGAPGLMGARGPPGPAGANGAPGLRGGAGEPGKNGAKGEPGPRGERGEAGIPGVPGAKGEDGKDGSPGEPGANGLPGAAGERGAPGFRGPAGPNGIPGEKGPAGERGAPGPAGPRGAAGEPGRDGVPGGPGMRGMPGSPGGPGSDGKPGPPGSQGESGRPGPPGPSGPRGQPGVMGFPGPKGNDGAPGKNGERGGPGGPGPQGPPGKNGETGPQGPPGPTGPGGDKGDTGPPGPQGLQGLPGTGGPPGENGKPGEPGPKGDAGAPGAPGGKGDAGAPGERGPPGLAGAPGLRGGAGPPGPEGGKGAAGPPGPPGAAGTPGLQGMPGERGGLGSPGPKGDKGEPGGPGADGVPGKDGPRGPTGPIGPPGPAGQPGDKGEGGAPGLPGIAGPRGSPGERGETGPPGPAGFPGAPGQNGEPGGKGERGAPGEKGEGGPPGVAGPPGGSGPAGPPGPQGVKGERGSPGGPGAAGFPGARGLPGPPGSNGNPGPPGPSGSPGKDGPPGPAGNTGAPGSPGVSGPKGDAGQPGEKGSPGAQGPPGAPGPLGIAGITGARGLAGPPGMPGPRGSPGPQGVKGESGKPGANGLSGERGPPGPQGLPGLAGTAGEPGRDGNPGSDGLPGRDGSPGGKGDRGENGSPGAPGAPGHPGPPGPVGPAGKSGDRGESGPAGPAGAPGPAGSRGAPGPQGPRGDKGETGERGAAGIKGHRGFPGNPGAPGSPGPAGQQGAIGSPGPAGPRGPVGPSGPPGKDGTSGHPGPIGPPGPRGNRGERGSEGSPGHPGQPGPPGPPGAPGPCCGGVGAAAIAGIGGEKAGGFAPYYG

- platelet binding on collagen type III coated surface pretreated with Saratin, whole human blood under flow (shear rate 1300 s-1): 80%
- reduction in platelet deposition on collagen type III coated coverslips at a shear rate of 1300 s-1: 81%
Substance: Saratin (protein isolated from the saliva of the leech Hirudo medicinalis; 103 amino acids)
